The target of the test is T1, recombinant human connective tissue growth factor (human, UniProt P29279 27-349).
T1 construct: signal peptide in the construct; connective tissue growth factor (CTGF), human, cDNA for full-length rhCTGF aa 1-349, Swiss-Prot P29279; secreted into the supernatant of HEK293T cells; The purified protein runs as two bands, 36 kDa (unglycosylated) and 38 kDa (glycosylated); No tag is mentioned; also called hCTGF; rhCTGF
T1 sequence (looked up): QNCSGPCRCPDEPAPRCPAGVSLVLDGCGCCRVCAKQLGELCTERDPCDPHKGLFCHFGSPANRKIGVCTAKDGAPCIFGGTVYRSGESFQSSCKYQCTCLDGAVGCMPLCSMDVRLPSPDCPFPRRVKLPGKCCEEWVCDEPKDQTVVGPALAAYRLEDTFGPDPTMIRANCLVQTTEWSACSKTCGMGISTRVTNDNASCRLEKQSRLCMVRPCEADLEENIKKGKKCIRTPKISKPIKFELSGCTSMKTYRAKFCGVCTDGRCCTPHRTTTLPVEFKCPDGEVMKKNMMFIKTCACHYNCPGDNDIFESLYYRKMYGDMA
In words: SPR; BIACORE 2000; biotinylated BMP-2 immobilised on a streptavidin-coated CM5 chip at about 500 RU; CTGF flowed over at 10 ul/min, 25 °C; association 5 min, dissociation 3 min; regeneration with 4 M MgCl2; kinetic data fitted to a 1:1 Langmuir model; two independent experiments, at least six concentrations; apparent KD. Conditions: both partners purified.

B1: bone morphogenetic protein 2 (ligand, UniProt P12643 283-396, looked up)
chain: QAKHKQRKRLKSSCKRHPLYVDFSDVGWNDWIVAPPGYHAFYCHGECPFPLADHLNSTNHAIVQTLVNSVNSKIPKACCVPTELSAISMLYLDENEKVVLKNYQDMVVEGCGCR
modifications: biotin (biotinylated BMP-2; site not stated)
notes: bone morphogenetic protein 2 (BMP-2); also called BMP-2; source: expressed and purified as described [19]
B1: the Kd came out at 400 nM.

Values taken from article PMC3021567, “Gene expression profiling of connective tissue growth factor (CTGF) stimulated primary human tenon fibroblasts reveals an inflammatory and wound healing response in vitro” (Molecular Vision, 2011).
